Reference: patent US20220226382A1, “Nutritional Composition” (MORINAGA MILK INDUSTRY CO., LTD., priority 2019, published 2022)

System: simian rotavirus SA11 strain
Assay: Plaque assay: antiviral action against simian rotavirus in MA104 cells (infection-suppressing ratio)
Assay type: cell-based
Conditions: LF alone, n=3
Method: The simian rotavirus SA11 strain (Nihon Bioresearch Inc.) was inoculated to the MA104 cells (Sigma-Aldrich) of African green monkey kidney maintained in a minimum essential medium (Sigma-Aldrich, henceforth referred to simply as “medium”). The simian rotavirus SA11 strain, for example, can be obtained from American Type Culture Collection (ATCC) as ATCC VR-1565. To the medium, lactoferrin (LF) and/or the human milk oligosaccharide(s) shown below were added beforehand alone or in combination at the following concentrations, respectively (n=3).
LF (produced by Morinaga Milk Industry Co., Ltd.): 0, 0.1 or 1.0 mg/mL
2′-Fucosyllactose (2′-FL, Funakoshi Co., Ltd.): 0, 0.1, 0.5, or 2.5 mg/mL
3-Fucosyllactose (3-FL, Funakoshi Co., Ltd.): 0, 0.1, or 0.5 mg/mL
3′-Sialyllactose (3′-SL, Funakoshi Co., Ltd.): 0, 0.1, or 0.5 mg/mL
6′-Sialyllactose (6′-SL, Funakoshi Co., Ltd.): 0, 0.1, or 0.5 mg/mL […]
Degree of infection was evaluated based on the number of “plaques” formed when the cells were infected with the virus. Specifically, the antiviral effects of lactoferrin and human milk oligosaccharides were evaluated based on “plaque-suppressing ratio (%)”, i.e., the ratio of “plaque counts observed with lactoferrin and/or human milk oligosaccharide(s) supplementation” to “plaque counts observed without these supplementation”. […]

B1: lactoferrin (protein, UniProt P24627 20-708, looked up)
Lactotransferrin: APRKNVRWCTISQPEWFKCRRWQWRMKKLGAPSITCVRRAFALECIRAIAEKKADAVTLDGGMVFEAGRDPYKLRPVAAEIYGTKESPQTHYYAVAVVKKGSNFQLDQLQGRKSCHTGLGRSAGWIIPMGILRPYLSWTESLEPLQGAVAKFFSASCVPCIDRQAYPNLCQLCKGEGENQCACSSREPYFGYSGAFKCLQDGAGDVAFVKETTVFENLPEKADRDQYELLCLNNSRAPVDAFKECHLAQVPSHAVVARSVDGKEDLIWKLLSKAQEKFGKNKSRSFQLFGSPPGQRDLLFKDSALGFLRIPSKVDSALYLGSRYLTTLKNLRETAEEVKARYTRVVWCAVGPEEQKKCQQWSQQSGQNVTCATASTTDDCIVLVLKGEADALNLDGGYIYTAGKCGLVPVLAENRKSSKHSSLDCVLRPTEGYLAVAVVKKANEGLTWNSLKDKKSCHTAVDRTAGWNIPMGLIVNQTGSCAFDEFFSQSCAPGADPKSRLCALCAGDDQGLDKCVPNSKEKYYGYTGAFRCLAEDVGDVAFVKNDTVWENTNGESTADWAKNLNREDFRLLCLDGTRKPVTEAQSCHLAVAPNHAVVSRSDRAAHVKQVLLHQQALFGKNGKNCPDKFCLFKSETKNLLFNDNTECLAKLGGRPTYEEYLGTEYVTAIANLKKCSTSPLLEACAFLTR
notes: produced by Morinaga Milk Industry Co., Ltd
infection-suppressing ratio (0.1 mg/mL): 8.7% | infection-suppressing ratio (1.0 mg/mL): 39%
